From article doi:10.1101/493668 (bioRxiv, 2019)
No end group written: not given here.

Key:
[1] = molecular target: CsgA, major curlin subunit, recombinant with C-terminal His6-tag (Escherichia coli) (UniProt P28307); test: SEC-MALS
[2] = molecular target: the molecule itself; test: ThT fibrillation kinetics
crystal structure = molecular target: the molecule itself; test: crystal structure
[3] = molecular target: the molecule itself; test: ThT fibrillation kinetics; remark: listed apart in the source

Chain of CsgA, major curlin subunit, recombinant with C-terminal His6-tag (P28307 21-151): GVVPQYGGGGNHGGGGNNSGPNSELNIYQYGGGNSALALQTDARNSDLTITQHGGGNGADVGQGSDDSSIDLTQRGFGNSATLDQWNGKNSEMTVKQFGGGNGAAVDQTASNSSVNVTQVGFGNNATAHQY

Molecule	binding result [2]	binding result (crystal structure)	also measured
CsgA, major curlin subunit, recombinant with C-terminal His6-tag (from UniProt P28307 21-151) (natural protein)			stoichiometry N [1]: 6
Ac-LNIYQY-NH2 [CsgA segment 45LNIYQY50 (R1 repeat), capped termini]	binds		
Ac-VTQVGF-NH2 [CsgA segment 137VTQVGF142 (R5 repeat), capped termini]	binds		
H-TASNSS-OH [CsgA segment 129TASNSS134 (R4-R5 loop), unmodified termini]		binds	
Ac-IYQYGG-NH2 [CsgA segment 47IYQYGG52 (R1 repeat), capped termini]	binds		
LNIYQY-NH2 [CsgA segment 45LNIYQY50 (R1 repeat), capped at the C-terminus]			binding result [3]: binds
H-VTQVGF-OH [CsgA segment 137VTQVGF142 (R5 repeat), unmodified termini]		binds	
H-LNIYQY-OH [CsgA segment 45LNIYQY50 (R1 repeat), unmodified termini]		binds	
VTQVGF-NH2 [CsgA segment 137VTQVGF142 (R5 repeat), capped at the C-terminus]			binding result [3]: binds
H-IYQYGG-OH [CsgA segment 47IYQYGG52 (R1 repeat), unmodified termini]		binds	
